The source of these data is US20220332804A1 (CSL INNOVATION, published 2022).

What all share (test): SPR, KD relative to WT C2;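 note: biacore SPR at 37 °C, anti-C2 mAbs captured on anti-human IgG chips with alanine or serine point mutants of C2 as analyte, KD from 1:1 fit compared with wild-type C2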
One assay deals with T1, human C2 N424A (human, UniProt P06681 21-752).
T1 sequence: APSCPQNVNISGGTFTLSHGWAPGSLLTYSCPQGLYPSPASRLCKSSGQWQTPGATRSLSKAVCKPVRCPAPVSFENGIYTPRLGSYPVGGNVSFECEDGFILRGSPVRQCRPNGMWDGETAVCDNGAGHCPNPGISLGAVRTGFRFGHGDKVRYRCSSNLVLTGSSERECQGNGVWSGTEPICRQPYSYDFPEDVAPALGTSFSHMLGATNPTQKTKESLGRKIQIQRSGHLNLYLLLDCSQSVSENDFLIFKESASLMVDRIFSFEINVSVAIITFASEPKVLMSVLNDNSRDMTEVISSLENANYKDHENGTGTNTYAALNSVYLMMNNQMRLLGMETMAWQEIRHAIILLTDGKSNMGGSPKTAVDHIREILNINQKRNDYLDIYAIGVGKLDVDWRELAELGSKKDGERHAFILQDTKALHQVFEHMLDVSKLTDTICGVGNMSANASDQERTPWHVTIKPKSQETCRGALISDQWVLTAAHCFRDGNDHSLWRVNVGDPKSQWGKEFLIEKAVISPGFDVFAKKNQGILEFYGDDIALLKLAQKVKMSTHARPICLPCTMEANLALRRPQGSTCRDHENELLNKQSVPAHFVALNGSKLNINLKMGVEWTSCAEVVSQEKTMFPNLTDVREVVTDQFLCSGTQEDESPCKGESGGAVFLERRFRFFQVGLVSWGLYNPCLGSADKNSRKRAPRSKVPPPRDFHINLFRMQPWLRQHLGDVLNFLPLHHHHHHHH

In a further assay the target is T2, human C2 F437A (human, UniProt P06681 21-752).
T2 sequence: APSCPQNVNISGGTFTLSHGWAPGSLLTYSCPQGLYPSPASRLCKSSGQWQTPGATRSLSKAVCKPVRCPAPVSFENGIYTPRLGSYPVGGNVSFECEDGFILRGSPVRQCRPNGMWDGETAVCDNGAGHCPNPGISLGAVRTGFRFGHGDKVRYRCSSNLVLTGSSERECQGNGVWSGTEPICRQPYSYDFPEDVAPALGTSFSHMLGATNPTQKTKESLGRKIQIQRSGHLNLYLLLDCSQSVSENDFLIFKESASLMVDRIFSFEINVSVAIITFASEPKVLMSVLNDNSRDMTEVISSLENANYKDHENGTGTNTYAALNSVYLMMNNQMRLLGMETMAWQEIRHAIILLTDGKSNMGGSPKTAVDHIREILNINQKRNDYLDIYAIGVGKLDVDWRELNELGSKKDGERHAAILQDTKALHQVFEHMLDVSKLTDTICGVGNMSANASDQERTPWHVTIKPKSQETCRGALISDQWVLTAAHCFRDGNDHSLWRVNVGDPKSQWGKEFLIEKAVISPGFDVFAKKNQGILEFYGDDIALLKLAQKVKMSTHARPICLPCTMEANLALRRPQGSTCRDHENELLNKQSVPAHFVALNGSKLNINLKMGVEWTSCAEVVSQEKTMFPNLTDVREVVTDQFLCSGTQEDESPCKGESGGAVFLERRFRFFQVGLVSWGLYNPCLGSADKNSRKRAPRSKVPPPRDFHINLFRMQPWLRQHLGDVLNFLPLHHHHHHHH

Another assay deals with T3, human C2 E275A (human, UniProt P06681 21-752).
T3 sequence: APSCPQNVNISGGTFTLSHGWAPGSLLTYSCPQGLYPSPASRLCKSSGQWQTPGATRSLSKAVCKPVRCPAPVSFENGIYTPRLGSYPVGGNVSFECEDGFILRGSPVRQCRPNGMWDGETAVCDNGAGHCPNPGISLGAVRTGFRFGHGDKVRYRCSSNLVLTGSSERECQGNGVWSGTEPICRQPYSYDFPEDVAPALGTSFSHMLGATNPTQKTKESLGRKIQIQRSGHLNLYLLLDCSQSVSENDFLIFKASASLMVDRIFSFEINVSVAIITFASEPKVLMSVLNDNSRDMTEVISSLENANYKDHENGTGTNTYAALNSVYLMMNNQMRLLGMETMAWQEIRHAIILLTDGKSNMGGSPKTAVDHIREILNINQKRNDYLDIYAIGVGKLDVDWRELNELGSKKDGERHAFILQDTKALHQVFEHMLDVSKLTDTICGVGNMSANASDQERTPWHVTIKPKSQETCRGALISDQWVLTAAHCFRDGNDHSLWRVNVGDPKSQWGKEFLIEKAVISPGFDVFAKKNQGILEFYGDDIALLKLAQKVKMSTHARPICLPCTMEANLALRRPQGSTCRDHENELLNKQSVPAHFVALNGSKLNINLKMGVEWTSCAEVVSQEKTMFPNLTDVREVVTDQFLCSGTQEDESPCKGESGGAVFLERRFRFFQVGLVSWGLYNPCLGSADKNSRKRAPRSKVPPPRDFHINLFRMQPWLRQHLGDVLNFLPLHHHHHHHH

Another assay addresses T4, human C2 S278A (human, UniProt P06681 21-752).
T4 sequence: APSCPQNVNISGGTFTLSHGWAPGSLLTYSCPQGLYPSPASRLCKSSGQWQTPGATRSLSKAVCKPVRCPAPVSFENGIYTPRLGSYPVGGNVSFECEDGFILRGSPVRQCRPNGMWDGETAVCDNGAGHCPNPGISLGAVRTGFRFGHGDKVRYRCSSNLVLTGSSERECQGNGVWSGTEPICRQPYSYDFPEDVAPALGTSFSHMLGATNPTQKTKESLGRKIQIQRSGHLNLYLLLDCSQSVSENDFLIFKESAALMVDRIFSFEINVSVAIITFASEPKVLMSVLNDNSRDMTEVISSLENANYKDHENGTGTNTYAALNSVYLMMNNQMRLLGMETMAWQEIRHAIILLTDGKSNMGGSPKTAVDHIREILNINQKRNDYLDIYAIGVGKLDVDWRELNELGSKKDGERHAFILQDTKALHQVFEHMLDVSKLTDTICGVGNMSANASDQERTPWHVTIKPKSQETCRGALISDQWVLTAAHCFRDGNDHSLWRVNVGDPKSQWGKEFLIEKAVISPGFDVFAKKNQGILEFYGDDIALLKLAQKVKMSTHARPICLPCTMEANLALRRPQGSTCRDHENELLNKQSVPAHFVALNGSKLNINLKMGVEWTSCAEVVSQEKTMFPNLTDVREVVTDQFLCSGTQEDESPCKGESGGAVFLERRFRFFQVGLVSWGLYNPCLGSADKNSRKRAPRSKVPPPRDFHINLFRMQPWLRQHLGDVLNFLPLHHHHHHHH

B1: RF16-242 (antibody, human IgG4 S228P, lambda, V domains shown)
VH: EVQLLQSGAEVKKPGESLKISCKGSGYSFTSYWIGWVRQMPGKGLEWMGIIYPGDSDTRYSPSFQGQVTISADKSISTAYLQWSSLKASDTAMYYCARRGHYGDYFDYWGQGTLVTVSS
VL: SYELTQPPSVSVSPGQTARITCSGDALPKKYAYWYHQKSGQAPVLVIYEDRRRPSEIPERFSGSSSGTMATLTITGAQVEDEGVYFCYSRDRAGNQRVFGGGTQLTVLG
notes: pH-dependent anti-C2 antibody from a phage display library
With B1, the Fold diff with human C2 N424A amounted to 1 fold; with human C2 F437A, 15 fold; with human C2 E275A it was 6 fold; in the assay with human C2 S278A, 1 fold.
